Earlier results as cited in article PMC9741594.

Biological target: T1, Internalin A (on whole Listeria monocytogenes cells) (Listeria monocytogenes (strain not given in the material)) (UniProt P0DJM0)
T1 sequence: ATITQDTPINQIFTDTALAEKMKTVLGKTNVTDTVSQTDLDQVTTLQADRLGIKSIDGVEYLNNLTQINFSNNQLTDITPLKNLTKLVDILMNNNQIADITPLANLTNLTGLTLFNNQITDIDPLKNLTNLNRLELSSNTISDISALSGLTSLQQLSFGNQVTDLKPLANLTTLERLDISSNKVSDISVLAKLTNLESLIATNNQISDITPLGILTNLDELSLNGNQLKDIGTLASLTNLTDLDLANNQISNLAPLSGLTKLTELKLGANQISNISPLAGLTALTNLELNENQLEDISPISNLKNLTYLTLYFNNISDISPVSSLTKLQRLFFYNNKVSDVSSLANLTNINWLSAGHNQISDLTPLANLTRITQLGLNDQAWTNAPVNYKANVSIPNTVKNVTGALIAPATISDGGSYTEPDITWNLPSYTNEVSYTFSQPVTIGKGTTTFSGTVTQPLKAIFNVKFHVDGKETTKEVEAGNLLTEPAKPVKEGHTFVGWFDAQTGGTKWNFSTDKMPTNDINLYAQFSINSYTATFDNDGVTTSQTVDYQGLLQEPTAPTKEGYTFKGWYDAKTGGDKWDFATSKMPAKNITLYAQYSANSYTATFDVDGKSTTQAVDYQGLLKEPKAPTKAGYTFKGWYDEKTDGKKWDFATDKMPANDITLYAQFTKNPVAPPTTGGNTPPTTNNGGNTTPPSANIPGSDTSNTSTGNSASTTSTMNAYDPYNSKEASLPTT
Assay: not stated (cited)
Conditions: printed as KD = 103 CFU/mL, read as 10^3; whole-cell units; 5' amine (immobilized by carbodiimide chemistry on ALG-thiomer/Pt); 5' thiol version also made; PBS, whole L. monocytogenes cells, 15 min capture at pH 7 (extended brush), EIS at pH 3 (collapsed), room temperature; also chicken broth

ATCCATGGGGCGGAGATGAGGGGGAGGAGGGCGGGTACCCGGTTGAT [A8 anti-Internalin A aptamer]
Kd: 1000 CFU/mL
